Molecular target: the molecule itself
Assay: crystal structure; Rv3722c (~40 mg/mL) co-crystallised with 5 mM L-glutamic acid or 10 mM L-kynurenine, sitting drop vapor diffusion at 17 °C

B1: Rv3722c (aspartate aminotransferase of Mycobacterium tuberculosis) (enzyme)
chain: SFDSLSPQELAALHARHQQDYAALQGMKLALDLTRGKPSAEQLDLSNQLLSLPGDDYRDPEGTDTRNYGGQHGLPGLRAIFAELLGIAVPNLIAGNNSSLELMHDIVAFSMLYGGVDSPRPWIQEQDGIKFLCPVPGYDRHFAITETMGIEMIPIPMLQDGPDVDLIEELVAVDPAIKGMWTVPVFGNPSGVTYSWETVRRLVQMRTAAPDFRLFWDNAYAVHTLTLDFPRQVDVLGLAAKAGNPNRPYVFASTSKITFAGGGVSFFGGSLGNIAWYLQYAGKKSIGPDKVNQLRHLRFFGDADGVRLHMLRHQQILAPKFALVAEVLDQRLSESKIASWTEPKGGYFISLDVLPGTARRTVALAKDVGIAVTEAGASFPYRKDPDDKNIRIAPSFPSVPDLRNAVDGLATCALLAATETLLNQGLASSAPNVR
notes: also called AspAT
B1: binds.
